Experiments:
[1] = target: T1, full-length ADGRL3 expressed on HEK293T cells (human, UniProt Q9HAR2); experiment: cell-based or functional assay
Lec domain of ADGRL3 [2] = target: T2, Lec domain of ADGRL3 (human, UniProt Q9HAR2, biotin on the Avi-tag (BirA) in the flow cytometry experiments); experiment: flow cytometry on cells; competition: 5 µM ADGRL3 Lec domain pre-bound to TEN2 on HEK293T cells, increasing concentrations of LK30; row of LK30 with the Lec domain; conditions: both partners purified
T2 construct: ADGRL3 (Latrophilin3), human, N-terminal Lectin (Lec) domain; also called ADGRL3Lec; lectin domain of ADGRL3; source: High Five insect cells (baculovirus), secreted, purified (Ni-NTA, SEC)

Lec domain of ADGRL3 [3] = target: T2, Lec domain of ADGRL3; experiment: SPR; targets immobilised via His-tag on NTA sensor chip, sAB injected in 2-fold serial dilutions (25, 12.5, 6.25, 3.125 nM), RT, MASS-1 instrument, one-to-one Langmuir fit; conditions: both partners purified
Lec domain of ADGRL1 = target: T3, Lec domain of ADGRL1 (Rattus norvegicus, UniProt O88917); experiment: as above; conditions: both partners purified
T3 construct: ADGRL1 (Latrophilin1), rat, Lectin (Lec) domain; In the ELISA the target was held on a neutravidin plate, so it was probably biotinylated; also called Lec domain from ADGRL1; ADGRL1 lectin domain; source: baculovirus method (all proteins); not further stated for this fragment

[4] = target: T1, full-length ADGRL3 expressed on HEK293T …; experiment: flow cytometry on cells; HEK293T cells expressing full-length receptor, increasing concentrations of LK30, 30 min at 4 °C, detected with Alexa Fluor 647 anti-human F(ab')2; apparent affinity from MFI; conditions: one partner purified
[5] = target: T4, full-length ADGRL1 expressed on HEK293T cells (Rattus norvegicus (assumed for …, UniProt O88917)); experiment: as above; conditions: one partner purified
T4 construct: ADGRL1 (Latrophilin1), full length; also called Latrophilin1; source: HEK293T, transfected, on the cell surface; not shown: FLAG, N-terminal, kept
T4 sequence (O88917 25-1515): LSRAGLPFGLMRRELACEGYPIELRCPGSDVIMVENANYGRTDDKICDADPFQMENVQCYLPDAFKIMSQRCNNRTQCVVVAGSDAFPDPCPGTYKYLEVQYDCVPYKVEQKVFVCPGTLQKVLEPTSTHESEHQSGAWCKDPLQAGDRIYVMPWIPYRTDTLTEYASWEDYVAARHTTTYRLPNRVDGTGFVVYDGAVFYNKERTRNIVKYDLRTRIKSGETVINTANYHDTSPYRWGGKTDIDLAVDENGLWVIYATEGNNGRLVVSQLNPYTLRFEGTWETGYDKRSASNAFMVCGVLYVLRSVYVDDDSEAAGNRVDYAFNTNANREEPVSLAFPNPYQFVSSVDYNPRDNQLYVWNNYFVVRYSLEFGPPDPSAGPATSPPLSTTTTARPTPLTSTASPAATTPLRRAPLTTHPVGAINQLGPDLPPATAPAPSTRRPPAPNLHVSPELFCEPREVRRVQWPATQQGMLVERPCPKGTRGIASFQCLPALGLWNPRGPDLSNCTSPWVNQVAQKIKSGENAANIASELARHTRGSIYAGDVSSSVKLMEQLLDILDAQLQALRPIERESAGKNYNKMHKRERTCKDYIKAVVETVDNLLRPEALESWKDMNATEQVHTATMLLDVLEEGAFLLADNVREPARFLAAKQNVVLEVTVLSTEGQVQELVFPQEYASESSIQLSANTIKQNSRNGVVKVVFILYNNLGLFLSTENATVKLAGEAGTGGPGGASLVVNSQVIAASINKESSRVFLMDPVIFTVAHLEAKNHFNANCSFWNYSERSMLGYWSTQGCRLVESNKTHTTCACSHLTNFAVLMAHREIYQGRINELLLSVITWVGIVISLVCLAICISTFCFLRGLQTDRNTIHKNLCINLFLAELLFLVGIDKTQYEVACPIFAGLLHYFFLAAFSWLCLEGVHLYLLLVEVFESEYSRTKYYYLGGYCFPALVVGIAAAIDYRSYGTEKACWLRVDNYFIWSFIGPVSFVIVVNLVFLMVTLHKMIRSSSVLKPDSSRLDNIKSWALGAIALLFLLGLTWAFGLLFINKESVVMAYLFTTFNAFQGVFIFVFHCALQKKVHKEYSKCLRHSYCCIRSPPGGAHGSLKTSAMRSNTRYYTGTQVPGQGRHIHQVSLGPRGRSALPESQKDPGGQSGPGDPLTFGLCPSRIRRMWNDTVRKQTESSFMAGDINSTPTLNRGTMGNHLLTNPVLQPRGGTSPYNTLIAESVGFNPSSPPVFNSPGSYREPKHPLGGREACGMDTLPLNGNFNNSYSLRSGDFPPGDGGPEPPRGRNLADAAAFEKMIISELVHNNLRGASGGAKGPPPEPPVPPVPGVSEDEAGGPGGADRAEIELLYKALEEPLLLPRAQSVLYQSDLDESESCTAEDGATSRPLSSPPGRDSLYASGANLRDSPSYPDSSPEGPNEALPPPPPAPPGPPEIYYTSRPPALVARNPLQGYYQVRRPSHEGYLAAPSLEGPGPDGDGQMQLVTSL

[6] = target: T5, full-length TEN2 expressed on HEK293T cells (UniProt Q9NT68 1-2774); experiment: flow cytometry on cells; biotinylated ADGRL3 Lec domain titrated on HEK293T cells expressing full-length TEN2, detected with DyLight 650 neutravidin; conditions: one partner purified
T5 construct: teneurin-2 (TEN2), full length; Co-transfected with dsRed in the cell aggregation assay; also called FL TEN2; teneurin; source: HEK293T, transfected, on the cell surface

T1 sequence (Q9HAR2 20-1447): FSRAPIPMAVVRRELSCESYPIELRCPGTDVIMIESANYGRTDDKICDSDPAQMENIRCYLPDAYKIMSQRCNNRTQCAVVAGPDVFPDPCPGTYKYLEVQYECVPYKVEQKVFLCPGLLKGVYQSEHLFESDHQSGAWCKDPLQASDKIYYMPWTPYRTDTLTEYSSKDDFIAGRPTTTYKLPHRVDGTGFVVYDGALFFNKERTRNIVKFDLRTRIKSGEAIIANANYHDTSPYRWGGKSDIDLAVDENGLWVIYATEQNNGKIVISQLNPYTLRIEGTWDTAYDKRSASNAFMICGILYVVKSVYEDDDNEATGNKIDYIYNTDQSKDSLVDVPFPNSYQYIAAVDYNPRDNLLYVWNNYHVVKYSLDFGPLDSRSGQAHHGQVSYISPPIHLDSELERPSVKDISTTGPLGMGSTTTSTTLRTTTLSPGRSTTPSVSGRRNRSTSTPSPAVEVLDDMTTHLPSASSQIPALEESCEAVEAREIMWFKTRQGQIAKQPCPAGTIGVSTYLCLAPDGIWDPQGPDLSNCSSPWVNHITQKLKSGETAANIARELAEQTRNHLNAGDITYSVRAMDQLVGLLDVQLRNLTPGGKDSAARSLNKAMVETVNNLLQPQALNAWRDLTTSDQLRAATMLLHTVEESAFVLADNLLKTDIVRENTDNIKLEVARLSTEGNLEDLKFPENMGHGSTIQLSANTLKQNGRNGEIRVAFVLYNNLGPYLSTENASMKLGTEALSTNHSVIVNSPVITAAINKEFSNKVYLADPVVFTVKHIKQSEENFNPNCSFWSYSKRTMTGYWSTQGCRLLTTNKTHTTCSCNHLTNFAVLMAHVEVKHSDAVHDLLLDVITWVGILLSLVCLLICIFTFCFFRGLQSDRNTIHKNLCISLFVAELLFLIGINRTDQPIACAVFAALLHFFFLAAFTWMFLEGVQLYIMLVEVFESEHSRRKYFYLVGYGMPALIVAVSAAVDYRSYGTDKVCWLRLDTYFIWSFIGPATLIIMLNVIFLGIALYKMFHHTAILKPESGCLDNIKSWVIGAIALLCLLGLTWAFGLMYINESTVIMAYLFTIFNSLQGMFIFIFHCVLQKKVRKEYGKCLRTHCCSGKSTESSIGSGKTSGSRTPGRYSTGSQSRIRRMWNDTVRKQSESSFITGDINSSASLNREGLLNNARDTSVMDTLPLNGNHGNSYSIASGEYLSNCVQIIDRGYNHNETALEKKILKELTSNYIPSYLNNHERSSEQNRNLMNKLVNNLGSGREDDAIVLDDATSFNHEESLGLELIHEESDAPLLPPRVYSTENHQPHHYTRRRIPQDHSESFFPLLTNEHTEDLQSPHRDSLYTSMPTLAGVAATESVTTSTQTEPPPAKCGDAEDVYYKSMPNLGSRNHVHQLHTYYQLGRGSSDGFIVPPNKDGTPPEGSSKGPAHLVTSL

B1: synthetic antibody fragment (sAB) LK30 (Fab, V domains shown)
VH: EVQLVESGGGLVQPGGSLRLSCAASGFNIYYSSIHWVRQAPGKGLEWVAYISPYSGSTSYADSVKGRFTISADTSKNTAYLQMNSLRAEDTAVYYCARYKYGQGHMGAFDYWGQGTLVTVSS
VL: DIQMTQSPSSLSASVGDRVTITCRASQSVSSAVAWYQQKPGKAPKLLIYSASSLYSGVPSRFSGSRSGTDFTLTISSLQPEDFATYYCQQSNTELVTFGQGTKVEIK
notes: heavy chain (HC) of LK30 in the deposited structure PDB 8DJG; selected from synthetic phage library E on a humanized antibody Fab scaffold; light chain (LC) of LK30 in the deposited structure PDB 8DJG; Fab format (sAB) expressed from vector pRH2.2; source: E. coli BL21 (Gold), purified (protein L, Resource S ion exchange)
SRE-luciferase assay in HEK293T cells transfected with ADGRL3, 1 µM LK30: fold increase over basal activity [1]: ~2.5 fold | SRE-luciferase assay in HEK293T cells transfected with ADGRL3, titration of LK30: EC50 [1]: 42 nM | IC50 (Lec domain of ADGRL3 [2]): 193 nM | Kd (Lec domain of ADGRL3 [3]): 7 nM | Kd (Lec domain of ADGRL1): 11 nM | Kd [4]: 131 nM | Kd [5]: 147 nM

B2: Lec domain of ADGRL3 (domain or fragment, human)
chain: PIPMAVVRRELSCESYPIELRCPGTDVIMIESANYGRTDDKICDSDPAQMENIRCYLPDAYKIMSQRCNNRTQCAVVAGPDVFPDPCPGTYKYLEVQYECVPY
modifications: biotin on the Avi-tag (BirA) in the flow cytometry experiments
notes: ADGRL3 (Latrophilin3), human, N-terminal Lectin (Lec) domain; also called ADGRL3Lec; lectin domain of ADGRL3; source: High Five insect cells (baculovirus), secreted, purified (Ni-NTA, SEC)
Kd [6]: 129 nM
